Data from PMC6798810.
Substitutions are numbered along the chain they refer to.

Assays:
Experiment in all cases: EMSA
Conditions in all cases: EMSA: 15 ng/uL PCR product, 0.01-0.6 uM His-tagged protein, 45 min; MHQ 30 min, then DTT 30 min; buffer, pH and temperature not given (cited to ref. 44)
[1] = test system: T1, MhqR (Staphylococcus aureus COL), ORF:0a4449b0
T1 sequence: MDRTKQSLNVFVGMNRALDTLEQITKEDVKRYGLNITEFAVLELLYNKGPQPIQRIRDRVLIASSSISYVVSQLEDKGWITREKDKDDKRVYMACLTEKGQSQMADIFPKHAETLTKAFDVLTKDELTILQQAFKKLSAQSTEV

[2] = test system: T2, MhqR C95A C95A (Staphylococcus aureus COL), ORF:0a4449b0
T2 sequence: T1 sequence with C95A

[3] = test system: MhqR (Staphylococcus aureus COL)
[4] = test system: MhqR C95A (Staphylococcus aureus COL)

Substance: ACATATCAACTCCTATCATGATTGATTATAGTATTTCCCTATTCTATTTTAACTTAAACGAAGTCAAAGGTGCATGACAGTCATGTGACGACATTGCCACATCTATGTAGTCGTTTTTATTAAGCACAGTTTGAAATGAAGATGAAAACACGTATCTTGACATTAAATCTATTCAGTTATATAATTTATCCCTAAATCGAAATAAAATAAAAAAGTTGGTGATCATATGGATCGAACG (double strand) [PmhqRED m1]
- binding [1]: no binding

Substance: ACATATCAACTCCTATCATGATTGATTATAGTATTTCCCTATTCTATTTTAACTTAAACGAAGTCAAAGGTGCATGACAGTCATGTGACGACATTGCCACATCTATGTAGTCGTTTTTATTAAGCACAGTTTGAAATGAAGATGAAAACACGTATCTTGACATTAAATCTATTCAGTTATATAATTTATCTCGAAATAGGAATAAAATAAAAAAGTTGGTGATCATATGGATCGAACG (double strand) [PmhqRED m2]
- binding [1]: no binding

Substance: ACATATCAACTCCTATCATGATTGATTATAGTATTTCCCTATTCTATTTTAACTTAAACGAAGTCAAAGGTGCATGACAGTCATGTGACGACATTGCCACATCTATGTAGTCGTTTTTATTAAGCACAGTTTGAAATGAAGATGAAAACACGTATCTTGACATTAAATCTATTCAGTTATATAATTTATCTCGAAATCGAAATAAAATAAAAAAGTTGGTGATCATATGGATCGAACG (double strand) [PmhqRED promoter probe]
- Kd [2]: 14.2 nM
- Kd [1]: 7.38 nM

Substance: PmhqRED promoter probe
- Kd [3]: 7.38 nM
- Kd [4]: 14.2 nM
